Assay results as given in US20150276749A1 (KONICA MINOLTA, published 2015).
Values belong to the molecule of their own block, whether it stands above or below them.

Tests used:
[1] = target: soluble-type human DSG3-mouse IgG2aFc fusion protein (human; mouse) (UniProt P32926); test: sandwich ELISA, antigen in PBS(-); immobilized MAB1720, detection biotinylated MAB1720
[2] = target: soluble-type human DSG3-mouse IgG2aFc fusion protein (human; mouse) (UniProt P32926); test: sandwich ELISA, luminescence over blank; immobilized MAB1720, detection DF151; antigen 5000 pg/mL
[3] = target: soluble-type human DSG3-mouse IgG2aFc fusion protein (human; mouse) (UniProt P32926); test: sandwich ELISA, luminescence over blank; immobilized MAB1720, detection DF151; antigen 200 pg/mL
[4] = target: soluble-type human DSG3-mouse IgG2aFc fusion protein (human; mouse) (UniProt P32926); test: sandwich ELISA, antigen added to human serum; immobilized MAB1720, detection biotinylated DF151
[5] = target: soluble-type human DSG3-mouse IgG2aFc fusion protein (human; mouse) (UniProt P32926); test: sandwich ELISA, luminescence over blank; immobilized MAB1720, detection DF151; antigen 1 pg/mL
[6] = target: soluble-type human DSG3-mouse IgG2aFc fusion protein (human; mouse) (UniProt P32926); test: sandwich ELISA, luminescence over blank; immobilized MAB1720, detection DF151; antigen 1000 pg/mL
[7] = target: soluble-type human DSG3-mouse IgG2aFc fusion protein (human; mouse) (UniProt P32926); test: sandwich ELISA, antigen in PBS(-); immobilized MAB1720, detection biotinylated D219-3
[8] = target: soluble-type human DSG3-mouse IgG2aFc fusion protein (human; mouse) (UniProt P32926); test: sandwich ELISA, luminescence over blank; immobilized MAB1720, detection DF151; antigen 40 pg/mL
[9] = target: soluble-type human DSG3-mouse IgG2aFc fusion protein (human; mouse) (UniProt P32926); test: sandwich ELISA, antigen in PBS(-); immobilized MAB1720, detection biotinylated DF366m
[10] = target: soluble-type human DSG3-mouse IgG2aFc fusion protein (human; mouse) (UniProt P32926); test: sandwich ELISA, luminescence over blank; immobilized MAB1720, detection DF151; antigen 10 pg/mL
[11] = target: soluble-type human DSG3-mouse IgG2aFc fusion protein (human; mouse) (UniProt P32926); test: sandwich ELISA, antigen in PBS(-); immobilized MAB1720, detection biotinylated DF151
[12] = target: soluble-type human DSG3-mouse IgG2aFc fusion protein (human; mouse) (UniProt P32926); test: sandwich ELISA, luminescence over blank; immobilized MAB1720, detection DF151; antigen 25000 pg/mL
[13] = target: soluble-type human DSG3-mouse IgG2aFc fusion protein (human; mouse) (UniProt P32926); test: SPFS sandwich; immobilized MAB1720, detection DF151; antigen 1,000 pg/mL (µg/mL in the source)
[14] = target: T1, soluble-type human DSG3-mouse IgG2aFc fusion protein (human; mouse, UniProt P32926 50-616); test: sandwich ELISA, luminescence over blank; immobilized DF366m, detection DF151; antigen 10 pg/mL
T1 construct: also called human desmoglein 3; desmoglein 3 standard; not shown: mouse IgG2a Fc, printed 'mouse IgG2aFc' and 'mouse IgG2 constant region'
T1 sequence: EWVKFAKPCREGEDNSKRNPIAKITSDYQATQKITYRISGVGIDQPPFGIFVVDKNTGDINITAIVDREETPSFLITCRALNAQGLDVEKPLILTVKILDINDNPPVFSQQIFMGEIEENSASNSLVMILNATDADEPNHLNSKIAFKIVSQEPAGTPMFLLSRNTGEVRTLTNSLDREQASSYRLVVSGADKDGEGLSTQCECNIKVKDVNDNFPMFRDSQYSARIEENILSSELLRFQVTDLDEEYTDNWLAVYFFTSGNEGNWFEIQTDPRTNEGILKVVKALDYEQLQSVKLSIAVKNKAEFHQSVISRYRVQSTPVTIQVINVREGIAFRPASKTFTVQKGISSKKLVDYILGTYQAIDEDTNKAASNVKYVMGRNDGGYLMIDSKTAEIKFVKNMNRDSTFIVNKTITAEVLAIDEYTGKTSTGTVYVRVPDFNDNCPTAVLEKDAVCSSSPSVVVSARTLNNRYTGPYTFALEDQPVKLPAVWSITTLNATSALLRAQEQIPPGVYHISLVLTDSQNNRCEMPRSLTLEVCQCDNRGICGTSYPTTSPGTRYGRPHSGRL
Procedure: (§1) Subsequently, the antigen solutions having the above-described concentrations were each added to the plate in an amount of 50 μL/well, and the plate was incubated at room temperature for 1 hour. Then, the antigen solution was removed, and the plate was washed with 0.05% Tween 20-PBS three times. Thereafter, the 1-μg/mL biotinylated antibody solution was added in an amount of 50 μL/well, and the plate was incubated at room temperature for 1 hour.
(§2) Then, after removing the streptavidin-HRP solution and washing the plate with 0.05% Tween 20-PBS three times, a substrate solution (SuperSignal ELISA Femto Maximum Sensitivity Substrate (registered trademark); Pierce Biotechnology, Inc.) was added in an amount of 100 μL/well. One minute thereafter, the luminescence intensity was measured using a luminometer, Fluoroskan Ascent FL (trade name, Thermo Electron Corporation).
(§3) The numerical values shown in Table 1 represent the minimum values of the antigen solution concentration having an S/N ratio of higher than 2 (hereinafter, referred to as “detection limit concentration”) and the unit of the numerical values is pg/mL. […]

[15] = target: T1, soluble-type human DSG3-mouse IgG2aFc …; test: sandwich ELISA, luminescence over blank; immobilized DF366m, detection DF151; antigen 200 pg/mL
Procedure: as §1, §2
(§4) The numerical values shown in Table 1 represent the minimum values of the antigen solution concentration having an S/N ratio of higher than 2 (hereinafter, referred to as “detection limit concentration”) and the unit of the numerical values is pg/mL. The S/N ratio was determined by dividing the luminescence intensity at the respective antigen solution concentrations ([…]) by the luminescence intensity of an antigen-free blank antigen solution (0 μg/mL).

[16] = target: T1, soluble-type human DSG3-mouse IgG2aFc …; test: sandwich ELISA, luminescence over blank; immobilized DF366m, detection MAB1720; antigen 10 pg/mL
Procedure: as §1, §2, §3

[17] = target: T1, soluble-type human DSG3-mouse IgG2aFc …; test: sandwich ELISA, luminescence over blank; immobilized DF366m, detection MAB1720; antigen 1000 pg/mL
Procedure: as §1, §2, §4

[18] = target: T1, soluble-type human DSG3-mouse IgG2aFc …; test: sandwich ELISA, luminescence over blank; immobilized DF366m, detection DF151; antigen 5000 pg/mL
Procedure: as §1, §2, §4

[19] = target: T1, soluble-type human DSG3-mouse IgG2aFc …; test: sandwich ELISA, luminescence over blank; immobilized DF366m, detection DF151; antigen 1000 pg/mL
Procedure: as §1, §2, §4

[20] = target: T1, soluble-type human DSG3-mouse IgG2aFc …; test: sandwich ELISA, luminescence over blank; immobilized DF366m, detection MAB1720; antigen 25000 pg/mL
Procedure: as §1, §2, §4

[21] = target: T1, soluble-type human DSG3-mouse IgG2aFc …; test: sandwich ELISA, luminescence over blank; immobilized DF366m, detection DF151; antigen 25000 pg/mL
Procedure: as §1, §2, §4

[22] = target: T1, soluble-type human DSG3-mouse IgG2aFc …; test: sandwich ELISA, luminescence over blank; immobilized DF366m, detection MAB1720; antigen 40 pg/mL
Procedure: as §1, §2, §4

[23] = target: T1, soluble-type human DSG3-mouse IgG2aFc …; test: sandwich ELISA, luminescence over blank; immobilized DF366m, detection DF151; antigen 1 pg/mL
Procedure: as §1, §2, §3

[24] = target: T1, soluble-type human DSG3-mouse IgG2aFc …; test: SPFS sandwich; immobilized DF366m, detection DF151; antigen 1,000 pg/mL (µg/mL in the source)
Procedure: (§5) Once again, a Tris-buffered saline (TBS) containing 0.05% by mass of Tween 20 was fed and circulated in the flow path for 10 minutes to wash the flow path. Then, with the flow path being filled with PBS buffer (pH 7.4), the assay area was irradiated with laser light (640 nm, 40 μW) from the back side of the metal thin films, and the fluorescence intensity was measured using a photomultiplier tube (PMT) arranged above the assay area. The thus measured value was defined as “signal” (S) at a desmoglein 3 concentration of 100 μg/mL.
On another front, the fluorescence intensity was also measured by the same procedures as described above, except that a PBS solution containing no desmoglein 3 (0 μg/mL) was fed in place of the PBS solution containing 100 μg/mL of desmoglein 3. The thus measured value was defined as “noise” (N).
(§6) Further, the fluorescence intensity was measured by the same procedures as described above, except that the desmoglein 3 concentration of the fed PBS solution was changed to 10,000 μg/mL, 5,000 μg/mL, 1,000 μg/mL, 200 μg/mL, 50 μg/mL, 10 μg/mL, 3.16 μg/mL, 1 μg/mL, 0.316 μg/mL, 0.1 μg/mL and 0.031 μg/mL. The thus measured values were each defined as “signal” (S) at the respective concentrations.

[25] = target: T1, soluble-type human DSG3-mouse IgG2aFc …; test: sandwich ELISA, luminescence over blank; immobilized DF366m, detection DF151; antigen 40 pg/mL
Procedure: as §1, §2, §4

[26] = target: T1, soluble-type human DSG3-mouse IgG2aFc …; test: sandwich ELISA, luminescence over blank; immobilized DF366m, detection MAB1720; antigen 200 pg/mL
Procedure: as §1, §2, §4

[27] = target: T1, soluble-type human DSG3-mouse IgG2aFc …; test: SPFS sandwich; immobilized DF366 (so in the source), detection MAB1720; antigen 1,000 pg/mL (µg/mL in the source)
Procedure: as §5, §6
In addition, when the antibody combination was variously changed in the same manner as in Example 1, it was confirmed that plots similar to the one shown in FIG. 6 can be obtained.

[28] = target: T1, soluble-type human DSG3-mouse IgG2aFc …; test: sandwich ELISA, luminescence over blank; immobilized DF366m, detection MAB1720; antigen 1 pg/mL
Procedure: as §1, §2, §4

[29] = target: T1, soluble-type human DSG3-mouse IgG2aFc …; test: sandwich ELISA, luminescence over blank; immobilized DF366m, detection MAB1720; antigen 5000 pg/mL
Procedure: as §1, §2, §4

- detection limit concentration (lowest antigen concentration with S/N > 2) [1]: 5000 pg/mL
- S/N ratio [2]: 11.4
- S/N ratio [3]: 1.3
- detection limit concentration [4]: 1000 pg/mL
- S/N ratio [5]: 0.9
- S/N ratio [6]: 2.8
- detection limit concentration (lowest antigen concentration with S/N > 2) [7]: 5000 pg/mL
- S/N ratio [8]: 1
- detection limit concentration (lowest antigen concentration with S/N > 2) [9]: 5000 pg/mL
- S/N ratio [10]: 1.1
- detection limit concentration (lowest antigen concentration with S/N > 2) [11]: 1000 pg/mL
- S/N ratio [12]: 53
- S/N ratio [13]: 34.5
Molecule: MAB1720 antibody (R&D Systems, Inc., Catalog No.: MAB1720)

- S/N ratio [14]: 1.1
- S/N ratio [15]: 2.3
- S/N ratio [16]: 1
- S/N ratio [17]: 3.9
- S/N ratio [18]: 37.3
- S/N ratio [19]: 8.1
- S/N ratio [20]: 80.4
- S/N ratio [21]: 186
- S/N ratio [22]: 0.9
- S/N ratio [23]: 1
- S/N ratio [24]: 140
- S/N ratio [25]: 1.2
- S/N ratio [26]: 1.8
- S/N ratio [27]: 92.2
- S/N ratio [28]: 0.9
- S/N ratio [29]: 16.6
B1: DF366m (DF366m[I] antibody) (antibody, mouse IgG2a, kappa, V domains shown)
VH: EVQLQQSGPELVKPGASVKISCKASGYTFTDYNMDWVKQSHGESLEWIGYIYPNNGGSGYNQKFKSKATLTVDKSSSTAYMELHSLTSEDSAVYYCARRDSYYGFDMAWFAYWGQGTLVTVSA
VL: DIQMTQSPASLSASVGETVTITCRPSENIYNNLAWYQQKQGKSPQLLVYVATNLAEGVPSRFSGSGSGTRFSLKINSLQPEDFGKYYCQHSYGTPWTFGGGTKLEIKR
notes: Complete antibody; Plain when immobilized; biotinylated (Biotin-AC5-Osu) when used as detection antibody; also called DF366m antibody
